Target: T1, CasEnd-14 (synthetic construct)
T1 chain: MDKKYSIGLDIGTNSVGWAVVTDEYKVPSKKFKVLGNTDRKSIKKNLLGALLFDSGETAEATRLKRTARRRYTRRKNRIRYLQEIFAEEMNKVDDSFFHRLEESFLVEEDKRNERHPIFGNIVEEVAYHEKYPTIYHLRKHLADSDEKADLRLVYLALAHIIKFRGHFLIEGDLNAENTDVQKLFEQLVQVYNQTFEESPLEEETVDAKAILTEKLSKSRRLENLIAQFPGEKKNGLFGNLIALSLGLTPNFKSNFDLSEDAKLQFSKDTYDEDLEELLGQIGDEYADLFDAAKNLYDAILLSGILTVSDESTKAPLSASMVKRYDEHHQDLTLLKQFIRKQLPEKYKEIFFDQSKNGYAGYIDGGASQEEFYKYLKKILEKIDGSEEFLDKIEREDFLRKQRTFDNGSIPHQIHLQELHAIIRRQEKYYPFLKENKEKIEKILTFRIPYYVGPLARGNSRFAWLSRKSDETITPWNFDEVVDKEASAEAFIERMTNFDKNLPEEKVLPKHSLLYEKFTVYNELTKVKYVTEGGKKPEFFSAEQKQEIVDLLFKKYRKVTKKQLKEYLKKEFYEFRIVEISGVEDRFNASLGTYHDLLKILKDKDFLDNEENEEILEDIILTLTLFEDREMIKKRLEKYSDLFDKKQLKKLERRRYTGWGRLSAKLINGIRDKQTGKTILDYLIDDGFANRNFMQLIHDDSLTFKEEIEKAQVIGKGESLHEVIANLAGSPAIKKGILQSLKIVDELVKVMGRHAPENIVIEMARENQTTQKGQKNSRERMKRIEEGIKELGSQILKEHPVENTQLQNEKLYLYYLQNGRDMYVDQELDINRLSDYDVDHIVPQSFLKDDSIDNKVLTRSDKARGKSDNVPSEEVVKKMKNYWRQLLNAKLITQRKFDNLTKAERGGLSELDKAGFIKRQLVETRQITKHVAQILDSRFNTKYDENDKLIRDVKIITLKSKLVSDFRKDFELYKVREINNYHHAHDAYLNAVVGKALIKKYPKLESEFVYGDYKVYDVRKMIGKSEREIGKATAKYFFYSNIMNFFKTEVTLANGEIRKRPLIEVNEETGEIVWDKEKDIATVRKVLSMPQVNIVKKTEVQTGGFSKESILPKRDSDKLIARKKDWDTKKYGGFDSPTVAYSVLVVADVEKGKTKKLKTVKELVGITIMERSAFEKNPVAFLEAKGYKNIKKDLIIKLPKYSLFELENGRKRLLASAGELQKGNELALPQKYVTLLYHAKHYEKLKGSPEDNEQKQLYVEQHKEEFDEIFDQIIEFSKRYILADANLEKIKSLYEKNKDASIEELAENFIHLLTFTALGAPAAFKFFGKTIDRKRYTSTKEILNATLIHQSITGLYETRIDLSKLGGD
Assay: cell_activity; +++; HEK293T; PAM not stated
How it was run: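 BFP-to-GFP conversion via reverse transcriptase fusion with each Cas endonuclease plus template RNA: 200 ng of each plasmid nucleofected into 250,000 BFP-expressing HEK293T cells (program DS-150). Percent GFP+ cells by flow cytometry at day 4 measured editing.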

B1: BFP-to-GFP template RNA ; BFP reporter protospacer (ssRNA ; dsDNA)
RNA: GCCGAAGCACUGCACGCCGUGUUUUAGAGCUAGAAAUAGCAAGUUAAAAUAAGGCUAGUCCGUUAUCAACUUGAAAAAGUGGCACCGAGUCGGUGCACCCUGACGUACGGCGUGCAGUGCUU
DNA 1: GCCGAAGCACTGCACGCCGT
DNA 2: ACGGCGTGCAGTGCTTCGGC
In the case of B1, the activity is reported as ≥ 100 % of reference.

Reference: patent publication US20250092426, “CAS ENDONUCLEASES AND RELATED METHODS” (Flagship Pioneering Innovations VII, LLC, published 2025)
